The record followed here is patent US20250215105A1, “ANTI-CD39 ANTIBODY” (BrightPath Biotherapeutics Co., Ltd., priority 2022, published 2025).

The target in assay [1] is T1, human CD39 (Homo sapiens, UniProt P49961).
T1 sequence (P49961 1-510): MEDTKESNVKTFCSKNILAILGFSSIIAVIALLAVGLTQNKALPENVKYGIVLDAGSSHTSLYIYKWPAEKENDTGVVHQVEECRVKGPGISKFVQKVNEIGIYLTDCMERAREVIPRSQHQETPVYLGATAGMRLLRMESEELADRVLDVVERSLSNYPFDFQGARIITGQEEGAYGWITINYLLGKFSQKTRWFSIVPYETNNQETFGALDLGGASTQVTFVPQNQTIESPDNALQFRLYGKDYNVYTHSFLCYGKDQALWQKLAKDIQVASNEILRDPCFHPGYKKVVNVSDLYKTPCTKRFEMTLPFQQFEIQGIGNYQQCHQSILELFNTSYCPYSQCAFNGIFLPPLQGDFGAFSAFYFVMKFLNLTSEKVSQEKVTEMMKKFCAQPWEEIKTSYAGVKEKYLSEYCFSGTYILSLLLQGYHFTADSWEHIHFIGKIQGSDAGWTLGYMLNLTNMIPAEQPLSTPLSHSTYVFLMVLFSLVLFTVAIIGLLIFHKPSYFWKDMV
Nature of the assay: activity to inhibit CD39 enzyme (ATP hydrolysis by CD39-expressing cells, CellTiter-Glo). Set-up: CD39^hi-expressing human melanoma cell line SK-MEL-28 (ATCC, HTB-72) or human ovarian adenocarcinoma cell line OAW-42; endogenous in cells; host or cells: SK-MEL-28 (ATCC, HTB-72) or OAW-42 (CLS, 300304). The class given is cell-based. To be noted: SK-MEL-28 or OAW-42 cells, ATP 10 μM. As for the experimental part: Two thousand SK-MEL-28 cells (ATCC, HTB-72), a CD39′-expressing line, suspended in 50 μl EMEM (Fujifilm, 055-08975) were seeded onto a 96-well V-bottom plate and incubated at 37° C. for 30 minutes with 150 μl of culture supernatant of single B cells. The cells were washed once with DPBS (Nacalai Tesque, 14249-24), then 100 μl of 5 μM ATP was added per well, and the mixture was incubated at 20° C. for 30 minutes. After centrifugation, 50 μl of the supernatant was separated, 50 μl CellTiter-Glo (Promega, G9243) was added and stirred, and after incubation at room temperature for 10 min, the amount of ATP was measured by chemiluminescence while using a microplate reader. The ability of B cell culture supernatant to inhibit CD39-mediated ATP hydrolysis was evaluated based on the amount of residual ATP.
The antibodies obtained in the above experiments were used to measure activity to inhibit CD39 enzyme by using the following procedure. […] After centrifugation, 50 μl of the supernatant was separated, 50 μl CellTiter-Glo was added and stirred, and after incubation at room temperature for 10 minutes, the level of chemiluminescence was measured using a microplate reader. Based on the amount of ATP consumed by SK-MEL-28 or OAW-42 cells, the ability of the antibody to inhibit CD39-mediated ATP hydrolysis was evaluated. […]
(ATP-based viability assays read luminescence as a measure of living cells.)

For assay [2], the system named is human lung cancer cell line NCI-H292. Nature of the assay: anti-tumor activity: NCI-H292 growth with stimulated PBMCs and ATP (IncuCyte). The class given is cell-based. To be noted: NCI-H292 with PBMCs E/T 2, ATP 500 μM. As for the experimental part:
The human lung cancer cell line NCI-H292 having red fluorescent protein (RFP) was seeded on a 96-well plate and cultured overnight. The next day, after removal of the medium, IL-2 (Miltenyi, 130-097-745) at a final concentration of 30 IU as suspended in X-VIVO-15™ medium (Lonza, 04-418Q) and an anti-human CD39 antibody or isotype control antibody at a final concentration of 0.3 to 100 μg/mL were added and the mixture was incubated at 37° C. for 30 minutes. Then, PBMCs from healthy volunteers stimulated with Dynabeads™ Human T-Activator CD3/CD28 (VERITAS, DB11131) for 10 days were added at an E/T ratio of 2 and the mixture was incubated at 37° C. for 30 minutes. […] This made it possible to evaluate the anti-tumor activity of the antibody due to its ability to promote the cytotoxic activity of PBMCs.

In the next assay the test system is Cynomolgus monkey CD39. Nature of the assay: CD39 binding analysis (FCM) using Cynomolgus monkey CD39-overexpressing cells. The conditions noted are these: 293T-cynoCD39 cells, 2 μg/ml antibody. On the procedure: Binding to target antigen-expressing cells was analyzed using Cynomolgus monkey CD39-overexpressing cells. This analysis was used to check cross-reactivity. The Cynomolgus monkey CD39-overexpressing cells were generated using a lentiviral vector system (OriGene, PS100069). Lentiviral particles carrying the Cynomolgus monkey CD39 gene (Gene ID: 102132860) as the target gene together with the puromycin resistance gene were generated and used to infect HEK293T cells therewith. Then, the cells were cultured in the presence of puromycin. HEK293T cells (293T-cynoCD39) in which the target gene was integrated into the genome and which became positive for Cynomolgus monkey CD39 were collected and used for FCM analysis. The cells were reacted with 2 μg/ml test antibody or isotype control antibody, stained with a fluorescence-labeled secondary antibody, and evaluated for antibody binding based on the fluorescence intensity obtained by flow cytometry analysis.

Another assay addresses T2, Human CD39 antigen (Homo sapiens, UniProt P49961).
T2 sequence (P49961 1-510): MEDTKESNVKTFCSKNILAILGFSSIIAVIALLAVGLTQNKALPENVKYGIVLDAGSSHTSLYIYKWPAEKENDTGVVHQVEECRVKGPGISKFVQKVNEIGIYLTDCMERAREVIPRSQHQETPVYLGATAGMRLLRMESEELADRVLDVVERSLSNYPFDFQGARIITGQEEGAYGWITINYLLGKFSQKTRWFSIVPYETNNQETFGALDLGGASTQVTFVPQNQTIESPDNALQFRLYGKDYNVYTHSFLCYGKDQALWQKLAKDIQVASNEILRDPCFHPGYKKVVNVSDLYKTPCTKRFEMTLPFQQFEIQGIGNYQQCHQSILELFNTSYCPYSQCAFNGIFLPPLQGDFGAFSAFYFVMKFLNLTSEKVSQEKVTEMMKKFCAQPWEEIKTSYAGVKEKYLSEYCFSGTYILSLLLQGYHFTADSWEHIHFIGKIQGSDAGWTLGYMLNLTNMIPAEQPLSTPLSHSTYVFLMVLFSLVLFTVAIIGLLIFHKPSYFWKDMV
Nature of the assay: affinity by surface plasmon resonance (SPR) analysis. The conditions noted are these: Biacore 8K, 1:1 binding model. As for the experimental part:
Kinetics of each antibody against their target antigen were measured using Biacore 8K (Cytiva). Each antibody to be measured was immobilized on a sensor chip (CM5) using a Mouse Antibody Capture Kit, type 2 (Cytiva, 29215281) for mouse antibodies and a Human Antibody Capture Kit, Type 2 (Cytiva, 26234600) for chimeric and humanized antibodies, respectively. Human CD39 antigen was subjected to 4-step dilution from […] to prepare each solution, the contact time was set to 120 seconds, the dissociation time was set to 600 seconds, and the flow rate was set to 30 μl/min. Under these conditions, HBS-EP+ was used as the running buffer, and each sample was then analyzed using the 1:1 binding model of multi-cycle kinetics.
Background: In SPR one partner is held on a chip, and binding of the other changes the refractive index at the surface.

Assay [3] addresses T1, human CD39. Nature of the assay: CD39 binding analysis (FCM) using human CD39-overexpressing cells. To be noted: 293T-hCD39 or Jurkat-hCD39 cells. As for the experimental part: 3.1 CD39 binding analysis (FCM analysis) (using human CD39) Binding to target antigen-expressing cells was analyzed by FCM analysis using human CD39-overexpressing cells. The human CD39-overexpressing cells were generated using a lentiviral vector system (OriGene, PS100069). Lentiviral particles carrying the human CD39 gene (Gene ID: 953) as the target gene together with the puromycin resistance gene were generated and used to infect HEK293T or Jurkat cells therewith. Then, the cells were cultured in the presence of puromycin. HEK293T or Jurkat cells ([…] or Jurkat-hCD39) in which the target gene was integrated into the genome and which became positive for human CD39 were collected and used for FCM analysis. Test or isotype control antibodies at a final concentration of 2 μg/mL or at the concentrations indicated in the figure were reacted with 1×10^5 cells for 15 minutes at 4° C., followed by washing twice with 0.5% BSA, 2 mM EDTA, and D-PBS. After washing, a fluorescent-labeled secondary antibody (anti-human IgG Fc, HP6017) was added, and the cells were stained at 4° C. for 15 minutes under light-shielded conditions, followed by washing twice in a similar manner. After addition of 7AAD (BioLegend, 420404), fluorescence intensity was measured using a flow cytometer (FACSVerse, BD). Antibody binding was evaluated based on the fluorescence intensity obtained.

B1: HuP4_IB_sc: humanized scFvFc obtained by humanizing P4_sc (antibody, V domains shown)
VH: QVQLLESGPELVKPSATLSITCTVSGFSLTNYGVHWIRQAPGKGLEWLGVILRRGSTDYNAAFMSRFTISKDNSKNQVYFKLRSVTAEDTAVYYCAKTAVVAGDYFDYWGQGTMVTVSS
VL: DIQMTQSHSTLSLSVGDRVTITCKASQNVGTNVAWYQQKPGQPPKALIYSASYRYSGVPSRFSGSGSGTDFTLTISSVQAEDVAVYYCQQYNSYPLTFGPGTKLEIK
modifications: left off: another chain or arm of the molecule; a dimerising Fc or GST; small tags and cut ends
notes: humanized scFvFc obtained by humanizing P4_sc
Take B1: the CD39 inhibitory activity result with human CD39 [1] is reported as “favorable CD39 inhibitory activity”.

B2: T-31414h1lala: anti-CD39 antibody with variable regions described in US2019/0062448, IgG1-lala constant region (antibody, V domains shown)
VH: QVQLVQSGAEVKKPGASVKVSCKASGYTFKSYEMHWVRQAPGQGLEWMGRINPSVGSTWYAQKFQGRVIMIRDTSTSTVYMELSSLRSEDTAVYYCARGKREGGTEYLRNWGQGTLVTVSS
VL: EIVLIQSPGILSLSPGERATLSCRASQSVSSSYLAWYQQKPGQAPRLLIYGASSRATGIPDRFSGSGSGTDFTLTISRLEPEDFAVYYCQQYHSYITFGGGTKVEIK
modifications: IgG1 LALA constant regions; T-31414 VH; T-31414 VL
notes: anti-CD39 antibody with variable regions described in US2019/0062448, IgG1-lala constant region
Regarding B2, in assay [2], the “growth rate of cancer cells” value is listed as “approximately 0.9”.

B3: P4_sc: anti-CD39 scFvFc (Fc silent) from phage display (antibody, V domains shown)
VH: QVQLKESGPSLVQPSQSLSITCTVSGFSLTNYGVHWVRQSPGKGLEWLGVILRRGSTDYNAAFMSRLSITKDNSKSQVFFKMNSLQADDTAIYYCAKTAVVAGDYFDYWGQGTTLTVSS
VL: DIVMTQSHKFMSTSVGDRVSVTCKASQNVGTNVAWYQQKPGQSPKALIYSASYRYSGVPDRFTGSGSGTDFTLTISNVQSEDLAEYFCQQYNSYPLTFGTGTKLEIK
modifications: left off: another chain or arm of the molecule; a dimerising Fc or GST; small tags and cut ends
notes: anti-CD39 scFvFc (Fc silent) from phage display
Consider B3, for which, in the assay on Cynomolgus monkey CD39, the “binding to monkey CD39” value was “bound to monkey CD39”. The CD39 inhibitory activity entry with human CD39 [1] was “activity to inhibit human CD39”. Further, in the assay with Human CD39 antigen, the “affinity for human CD39 (KD)” value is “favorable affinity”. Also, the “affinity for human CD39 on the cell surface” value with human CD39 [3] is recorded as “favorable affinity”.
